{
  "source": "the nanobody polyreactivity screen of Harvey et al. (2022)",
  "data": [
    {"assay": "yeast display, Sf9 membrane polyspecificity reagent, FACS + sequencing; frameworks hold sequencing errors", "how_it_was_run": "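Genes from sorted yeast were amplified by colony PCR, read by MiSeq 2 × 250 sequencing and filtered on CDR length. These cells carried a synthetic nanobody library in Saccharomyces cerevisiae BJ5465 and were sorted by FACS into low and high (top ~1%) gates on anti-HA and streptavidin fluorescence. Polyreactivity is labelled according to the gate of origin.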", "values": [
      {"sequence": "QVQLVESGGGLVQAGGSLRLSCAASGRTIGIYARGWYRQAPVKERELVADITIGGSTYYADSVKGRFTISRDNAKNTVFIQINSLKPEDTAVYYCAARNPGYTRTGRRYDSWGQGTQVTVSS", "polyreactivity (PSR sort gate)": "low polyreactivity"},
      {"sequence": "QVQLVESGGGLVQAGGSLRLSCAASGITIRPYTMGWYRQAPGKERELVARISRRGGSTYYADSVKGRFTISRDNAKNTVYLQMNSLKPEDTAVYYCATRSRAHISPYDYWGQGTQVTVSS", "polyreactivity (PSR sort gate)": "high polyreactivity"},
      {"sequence": "QVQLVESGGGLVQAGGSLRLRCAASGSTFTYYAMGWYRQAPGKERELVAVSNKSGGRTNYADSVKGRFTISRDNAKNTVYLQMNSLKPEDTAVYYCNKVTRREGSYGYPSRYDYWGQGTQVTVSS", "polyreactivity (PSR sort gate)": "high polyreactivity"},
      {"sequence": "QVQLVESGGGLVQAGGSLRLSCAASGRIFRPYAMGWYRQAPGKERELVAAITQSGGITSYADSVKGRFTISRDNAKNSVYLQMNSLKPEDTAVYYCATTSRYTRSHYDWYDYWGQGTQVTVSS", "polyreactivity (PSR sort gate)": "low polyreactivity"},
      {"sequence": "QVQLVESGGGLVQAGGSLRLSCAASGCIFAHNAMGWYRQAPGKERELVAASTYYADSVKGRFTISRDNAKNTVYLQMNSLKPEDTAVYYCAKRTRFSPGHDYWGQGTQVTVSS", "polyreactivity (PSR sort gate)": "high polyreactivity"},
      {"sequence": "QVQLVESGGGLVQAGGSLRLSCAASGRTFSGNTMVWYRQAPGKERELVAAITGRGGSTYYADSVKGRFTISRDNAKNTVYLQMNSKKPEDTAVYYCAALRYTFAGRFDYWGQGTQVTVSS", "polyreactivity (PSR sort gate)": "high polyreactivity"},
      {"sequence": "QVQLVESGGGLVQPGGSLRLSCAASGFTFRGYDMGWYRQAPGTERELVAGITWGDDSTYYADSVKGRFTISRDNAKNTVYLQMNSLKPEDTAVYYCATYFRVYYSQYDYWGEGTQVTVSS", "polyreactivity (PSR sort gate)": "high polyreactivity"},
      {"sequence": "QVQLVESGGGLVQAGGSLRLSCAASGSIFHYNAMGWYRQAPGKERELVAAITTSGGSTYYADSVKGRFTISRDNAKNTVYLQMNSLKPEDTAVYYCAADLVWTRYFGYAPDYYIEFDYWGQGTQVTVSS", "polyreactivity (PSR sort gate)": "high polyreactivity"},
      {"sequence": "QVQLVESGGGLVQAGGSLRLSFAASGRTFTWNVMGWYRQAPGKERELVAAITTDDRTYADSVKGRFTISRDNAKNTVYLQMNSLKPEDTAVYYCATVVAWSSRPVGEDYWGQGTQVTVSS", "polyreactivity (PSR sort gate)": "low polyreactivity"},
      {"sequence": "QVQLVESGGGLVQAGGSLRLSCAASGRTFVYKAMGWYRQSPGKERELVAALDGGGDRTYYADSVKGRFTISRDNAKNTVYLQMNSLKPEDTAVYYCARDPGDTYYYSYPEGDYWGEGTQVTVSS", "polyreactivity (PSR sort gate)": "low polyreactivity"},
      {"sequence": "EEELVESGGGLVQAGGSLRLSCAASGNIFEVNTMGWYRQAPGKERELVAAITSTGSTNYADSVKGRFTISRDNAKNTVYLQMNSLKPVDTAVYYSSATLEWYRYTYEYDYWGQGTQVTVSS", "polyreactivity (PSR sort gate)": "low polyreactivity"},
      {"sequence": "QVQLVESGGGLVQAGGSLRLSCAASGSMFVTNALGWYRQAPGTERELVAAMSVSGGSTYYADSVKGRFTISRDNAKNTVDLQMNSLKPEDTAVYYCNTVRSPPGHDYWGQGTQVTVSS", "polyreactivity (PSR sort gate)": "low polyreactivity"},
      {"sequence": "QVQLVESGGGLVQAGGSLRLSCAASGITFRTNTMGWYRQAPGKERELVAAISRGGTSTYYADSVKGRFTISRDNAKNTVYLQMNSLKPEDTAVYYCAADTRFYSGRGTVSGDYWGQGTQVTVSS", "polyreactivity (PSR sort gate)": "low polyreactivity"},
      {"sequence": "QVQLVESGGGLVQAGGSLRLSCAASGSTFRVNAMGWYRQAPGKERELVAAISGSGSGTYYADSVKGRFTISRDNAKNTVYLQMNSLKPEDTAVYYCAKVPKSRGYVGGMDYWGQGTQVTVSS", "polyreactivity (PSR sort gate)": "low polyreactivity"},
      {"sequence": "QVQLVESGGGLVQAGGSLRLSCASYGSIFSSYFMGWYRQAPGKERELVAAISSGGRTYYADSVKGRFTISRDNAKNTVYIQMKSLKPEDTAVFYCNRVRYRQSAFDYWGQGTQVTVSS", "polyreactivity (PSR sort gate)": "high polyreactivity"},
      {"sequence": "QVQLVESGGGLVQAGGSLRLSCAASGITFFEYAMGWYRQAPGKERELVAVITSGGSTNYADSVKGRFTISRDNAKNTVYLQMNSLKPEDTAVYYCNARVVKYRWWYDYYYWGQGTQVTVSS", "polyreactivity (PSR sort gate)": "low polyreactivity"},
      {"sequence": "QVQLVESGGGLVQAGGSLRLSCAASGSTIYRYAMGGYRQAPGKERELVAAITWSGGSTYYADSVKGRFTISRDNAKNTVYLQMNSLKPADTAVYYCNAVARYYYKDQTIIHSPREDYWGQGTQVTVSS", "polyreactivity (PSR sort gate)": "low polyreactivity"},
      {"sequence": "QVQLVESGGGLVQAGGSLRLSCAASGRIFTSYVMGWYRQAPGKERELVAAITSSGGSTYYADSVKGRFTISRDNAKNTVYLQMNSLKPEDTAVYYCAAATRGSGRRYDYWGQGTQVTVSS", "polyreactivity (PSR sort gate)": "high polyreactivity"},
      {"sequence": "QVQLVESGGGLVQAGGSLRLSCAASGSIFFYYAMGRYRQAPGKEMELVATINIGAGSTNYADSVKGRFTISRDNAKNTVYLQMNSLKPEDTAVYYCAADVNFYQDYIYLTDYDYWGQGTQVTVSS", "polyreactivity (PSR sort gate)": "low polyreactivity"},
      {"sequence": "QVQLVESGAGLVQAGGSLRLSCAASGSIFGRDTMGWYRQAPGKERELVAAINLRGGSTYYADSVKGRFTISRDNAKNTVYLQMNSLKPEDTAVYYCATDGWKQSAYDYWGQGTQVTVSS", "polyreactivity (PSR sort gate)": "low polyreactivity"},
      {"sequence": "QEQLQERGGGLVQAGGSLRLSCAASGNISVTGFMGWYRQAPGKERELVASIGIGGTTYYADSVKGRFSMSRDNAKNTVYLKMNRLKPEDTAVYYCAVRWYDHVSRRGIGYYWGKGTQVTVSS", "polyreactivity (PSR sort gate)": "low polyreactivity"},
      {"sequence": "QVQLVESGGGLVQAGGSLRLSCAASGLIFSNNAMGWYRQAPGKERELVAAISKSGGGTSYADSVKGRFTISRDNAKNTVYLQMNSLKPEDTAVYYCAARFRQFRVDYWGQGTQVTVSS", "polyreactivity (PSR sort gate)": "high polyreactivity"},
      {"sequence": "QVQLVESGGGLLQAGGSLRISCAASGIIFRLYDMAWYRQAPGKERELVAAISSGGSTYYADSVKGRFTISRDNAKNTVYLQMNSLKPVDTAVYYCNARVRYKRTGRYGYWGQVTQVTVSS", "polyreactivity (PSR sort gate)": "high polyreactivity"},
      {"sequence": "QVQLVESGGGLVQAGGSLRLSCAASGSTLYWNAMGWYRQAPGKDRELVATINTNGGSTYYADSVKGRFTISRDNAKNTVYLQMNSLKPEDTAVYYCAAQVRQWGYFRYYYWGQGTQVTVSS", "polyreactivity (PSR sort gate)": "high polyreactivity"},
      {"sequence": "QVQLVESGGGLVQAGGSLRLSCAASGRTFVHYAMGWYRPAPGKERELVAAITWNGGRTYYADSVKGRFTISRDNAKNTVYLQMNSLKPEDTAVYYCAADGKYYHRRPGWPIYDYWGQGTQVTVSS", "polyreactivity (PSR sort gate)": "high polyreactivity"},
      {"sequence": "QVQLVESGGGLVQAGGSLRLSCAASGLTFADNTMGWYRQAPGKERELVAAIDWSGGGTDYADSVKGRFTISRDNAKNTDYLQMNSLKPEDTAVYYCNAERTSWEDDYWGQGTQVTVSS", "polyreactivity (PSR sort gate)": "low polyreactivity"},
      {"sequence": "QVQLVESGGGLVQAGGILRLSCASSGNIFDRYAMGWYRQAPGKERELVAGITWSGGSTYYADSVKGRFTISRDNEKNTVYLQMNSLKPEDTAVYYCGQANYYWGQGTQVTVSA", "polyreactivity (PSR sort gate)": "low polyreactivity"},
      {"sequence": "QVQLVESGGGLVQAGGSLRLSCAASGRIFGNNVMGWYRQAPGKERELVASINYSGRTYYADSVKGRFTISRDNAKNTVYLQMNSLKPEDTAVYYCAARRYAWFYPYVTYDYWGQGTQVNVSS", "polyreactivity (PSR sort gate)": "high polyreactivity"},
      {"sequence": "QVQLVESGGCLVQAGGSLRLSCAASGSTFVKIVMGWYRQAPGKERELVAGITRGGSTYYADSVKGRFTISRDNAKNTVYLQMNSLKPEDTPVYYCAKRYAWDRDYWGQGTQVTVSS", "polyreactivity (PSR sort gate)": "high polyreactivity"},
      {"sequence": "QVQLVESGGGLVQAGGSLRLSCAASGRTFSNYAMGWYRQAPGKERELVAAISQRGGSTYYADSVKGRFTISRDNAKNTVYLQMNSLKPEDTAVYYCNARQTTATVGTGNYWGQGTQVTVSS", "polyreactivity (PSR sort gate)": "high polyreactivity"},
      {"sequence": "QVQLVESGGGLVQAGGSLRLSCAASGFIFKRYTMGWYRQAPGKERELVAAISKSGSSTYYADSVKGRFTISRDNAKNTVYLQMHSLKPEDTAVYYCAAGWGWSSFGYGYWGQGTQVTVSS", "polyreactivity (PSR sort gate)": "high polyreactivity"},
      {"sequence": "QVQLVESGGGLVQAGGSLRLSCAASGRTFQDNAMGWYRQAPGKERELVAAISWRGGSTNYADSVKGRFTISRDNAKNTVYLQMNSLKPEDTAVYYCAKGIRRWYGGSDYWGQGTQVTVSS", "polyreactivity (PSR sort gate)": "low polyreactivity"},
      {"sequence": "QVQLHESGGGLVQAGGSLRLSCAASGTISYAGPMGWYRQAPGKEREFVAGIGVGSNTNYADSVKGRYTIIRDNAKNTVYLQMNSLQPEDTAVYYCAVGGFAPLGRPYWGQGTQVTVSS", "polyreactivity (PSR sort gate)": "low polyreactivity"},
      {"sequence": "QVQLVESGGGLVQAGGSLRLSCAASGFTFVYYAMGWYRQAPGKERELVATISGNGGRTYYADSVKGRFTISRDNAKNTVYLQMNSLKPEDTAVYYCAADVVTYLSYTLDYWGQGTQVTVSS", "polyreactivity (PSR sort gate)": "low polyreactivity"},
      {"sequence": "QVQLVESGGGLVQAGGSLRLSCAASGSTFVIYGMGLYRQEPGKESDIVADITWIGGSTYYADSVKGRFTISRDNAKNTVYLQMKSLKPEDTAVYYCAADAAYLYLYNWYDTEDYYWGQGTLVTVSS", "polyreactivity (PSR sort gate)": "low polyreactivity"},
      {"sequence": "QVQLVESGGGLVQEGGSLRLSCAASGGIFFPNAMGWYRQAPGKERELVAAISWSAGSTYYADSVKGRFTISRDNAKNTVYLQMKSLKPEDTAVYYCAAAGSNYTVWFGYYYWGQVTQVTVSS", "polyreactivity (PSR sort gate)": "low polyreactivity"},
      {"sequence": "QVQLQESGGGLVQEGGSLRLSCAASGTISQEDWMGWYRQAPGKEREFVAAIGLGSNTNYADSLKGRFTISRDNAKNTVYLQMNSLKPEDTAVYYCAVSVWQYSDHVYRGQGTQVTVSS", "polyreactivity (PSR sort gate)": "low polyreactivity"},
      {"sequence": "QVQLVESGAGLVQAGGSLRLSCAASGRTFWVYSMGWSRQAPGKESELVAAFRRGGITNYADSVKGRFTISRDNAKITVYLQMNCLNPEDTAVYYCATENYGYLTRYYYWGPGTQVTVSS", "polyreactivity (PSR sort gate)": "low polyreactivity"},
      {"sequence": "QVQLVESGGGLVQAVGSLRLSGAASGSIFQYTAMGRYRQAPGKERELVAAISSRGGIRYYADSVKGRFTISRDNAKYTVFLQMNSLKPEDTAVYYCAAEAYYSDVRWSEYWGQGTQVTVSS", "polyreactivity (PSR sort gate)": "high polyreactivity"},
      {"sequence": "QVQLVESGGGLVQAGGSLRLICAASGSIFVYNAMGSYRQAPAKERELVAAISQRGGSTYYADSVKGRFTISRDNAKNTVYLQMKSLKPEDTAVYYCAAGPGDSGDDYWGQGTQVTVSS", "polyreactivity (PSR sort gate)": "low polyreactivity"},
      {"sequence": "QVQLVESGGGLVQAGGSLRLSCAASGRTFRIYAMGWYRHAPRKERELVAAIRWSGGTTYYADSVKGRFSISRDNAKNTVYLQMTSLKPEDTAVYYCAADSTNRYDYCGQGTQVTVSS", "polyreactivity (PSR sort gate)": "high polyreactivity"},
      {"sequence": "QVHLVESGGGLVQAGGSLRLSSAASGSIFQYNAMGWYRQAPGKERELVAGITTGGDTNYADSVKGRFTISRDNAKNTVYLHMNSLKPEDTAVYYCAARFGQWVSAYDYWGQGTQVTVSS", "polyreactivity (PSR sort gate)": "low polyreactivity"},
      {"sequence": "QVQLVESGGGLVQAGGSLRLSCAASGGTFAWYAMGWYRQAPGKERELVAAITSDGNTDYADSVKGRFTISRDNAKNTVYLQMNSLKPEDTAVYYCAADVQWRSAYDYTMGYWGQGTQVTVSS", "polyreactivity (PSR sort gate)": "low polyreactivity"}
    ]}
  ]
}
